Like-named read-outs stand apart in the source and are kept apart here. Blank lines part the entries; values can stand above or below the molecule they belong to. Peptide text beside a SMILES is read from it.
Experiments:
huPAR = target: T1, huPAR (Homo sapiens, UniProt Q03405); assay: Recovery of phage on Sf9 cells expressing full length huPAR; format: binding; conditions: phage displaying the sequence; Sf9 cells expressing fluPAR
T1 construct: Sf9 cells expressing full length huPAR ("fluPAR", day 2 post infection); expressed in transfected cells; host or cells: Sf9 insect cells (day 2 post infection)
T1 sequence (Q03405 23-335): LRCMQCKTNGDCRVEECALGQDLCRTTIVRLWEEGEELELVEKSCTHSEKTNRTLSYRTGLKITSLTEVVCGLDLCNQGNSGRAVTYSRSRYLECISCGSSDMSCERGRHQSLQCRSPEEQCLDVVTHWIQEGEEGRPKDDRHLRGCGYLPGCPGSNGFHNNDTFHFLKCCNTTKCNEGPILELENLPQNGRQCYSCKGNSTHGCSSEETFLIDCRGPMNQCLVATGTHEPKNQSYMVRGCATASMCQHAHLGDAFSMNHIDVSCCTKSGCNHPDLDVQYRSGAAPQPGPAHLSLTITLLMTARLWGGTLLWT
Protocol: 1.) 15mer phage (2.5×10^10) prepared as described above were selected by coincubation with 10^6 Sf9 cells expressing full length huPAR ("fluPAR", day 2 post infection) at room temperature for 60 minutes in Grace's medium with 2% nonfat milk. Binding phage were eluted with 6M urea (pH 2.2), the pH neutralized by adding 2M Tris-HCl, and assayed. The yield of binding phage was 0.0013% (3.3×10^5 pfu). The phage were amplified on solid agar plates as plaques, eluted with Tris-buffered saline, and precipitated with polyethylene glycol.
(§1) 3.) The phage selected in round 2 were reselected on Sf9 cells expressing fluPAR (day 2 post-infection) as described for round 1 (2.8×10^10 phage on 10^6 Sf9 cells). The yield of binding phage from this round was 5.40% (1.5×10^9 pfu), indicating a substantial enrichment in binding phage. Sample phage from the urea eluate were cloned, and their DNAs isolated and sequenced. Binding was assayed against Sf9 cells expressing fluPAR, and Sf9 cells expressing substance P receptor ("SPR," as a control).

[1] = target: T2, substance P receptor (SPR) (Homo sapiens, UniProt P25103); assay: Recovery of phage on Sf9 cells expressing substance P receptor (control); format: binding; conditions: phage displaying the sequence
T2 construct: expressed in transfected cells; host or cells: Sf9 insect cells
T2 sequence (P25103 whole entry, species assumed): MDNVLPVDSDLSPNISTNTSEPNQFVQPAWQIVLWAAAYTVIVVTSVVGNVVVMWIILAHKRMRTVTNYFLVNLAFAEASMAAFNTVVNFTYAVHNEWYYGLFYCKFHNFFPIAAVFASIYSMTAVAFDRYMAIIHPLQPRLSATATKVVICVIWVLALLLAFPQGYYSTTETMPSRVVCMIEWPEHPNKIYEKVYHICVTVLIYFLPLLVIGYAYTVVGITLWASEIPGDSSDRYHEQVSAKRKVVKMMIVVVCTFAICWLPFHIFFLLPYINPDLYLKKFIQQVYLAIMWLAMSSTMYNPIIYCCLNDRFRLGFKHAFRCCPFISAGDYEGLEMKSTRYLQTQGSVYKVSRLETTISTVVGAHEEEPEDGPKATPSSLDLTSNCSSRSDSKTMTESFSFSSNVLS
Protocol: as §1

human urokinase receptor = target: T3, human urokinase receptor (Homo sapiens, UniProt Q03405); assay: Competition of 125I-ATF binding to immobilized soluble recombinant human urokinase receptor; conditions: read-out: Affinity
T3 construct: expressed as a truncated, soluble molecule as described previously for mouse L-cells (Masucci et al., J Biol Chem (1991) 266:8655); made in house; host or cells: baculovirus / insect cells
T3 sequence (Q03405 23-299 limits assumed): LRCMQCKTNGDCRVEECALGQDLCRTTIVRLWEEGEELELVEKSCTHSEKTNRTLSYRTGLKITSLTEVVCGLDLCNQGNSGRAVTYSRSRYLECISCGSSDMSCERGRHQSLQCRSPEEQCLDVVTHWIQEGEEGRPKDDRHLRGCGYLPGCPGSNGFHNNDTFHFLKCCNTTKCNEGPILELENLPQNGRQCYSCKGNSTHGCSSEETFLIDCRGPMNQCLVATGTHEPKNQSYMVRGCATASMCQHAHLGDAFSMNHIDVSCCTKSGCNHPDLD
From the text: 4.) The peptides encoded by 25 phage were then synthesized by solid phase peptide chemistry on an Applied Biosystems Model 430A peptide synthesizer,using Boc chemistry, or were obtained from Chiron Mimotopes, Ltd., as soluble peptides. All peptides contained the Ala-Glu dipeptide at the amino terminus and were amidated at the carboxy terminus.
Baculovirus-derived recombinant human urokinase receptor was expressed as a truncated, soluble molecule as described previously for mouse L-cells (Masucci et al., J Biol Chem (1991) 266:8655). The purified receptor was biotinylated with NHS-biotin, and immobilized at 1 μg/mL in PBS/0.1% BSA on streptavidin coated 96-well plates. Human uPA ATF (residues 1-135, obtained from M. Shuman, University of California, San Francisco) was iodinated using the Iodogen method (Pierce), and used as tracer. The ^125 I-ATF was incubated at 100-500 pM with increasing amounts of peptide from 1 nM to 10 μM in triplicate for 2 hours at room temperature in 0.1% BSA/PBS in a total volume of 200 μL. The plates were then washed 3 times with PBS/BSA, and the remaining bound radioactivity determined.
*Assay performed at 100 pM ATF, 0.3 μg/ml suPAR in 200 μL. Other
assays are corrected to these conditions; corrections are about 3 ×
from previous assay conditions.

uPAR = uPAR (Homo sapiens, UniProt Q03405); conditions: Appella et al. 1987; cited from earlier work
Sequence of uPAR (Q03405 23-335, species assumed): as the sequence (Q03405 23-335) above

[2] = unstarred values: corrected to 100 pM ATF, 0.3 μg/ml suPAR, corrections about 3 × from previous assay conditions

Molecule: 37 (AECLNGGTAVSNKYFSNIHWCN) [compound 37]
% Recovery huPAR (huPAR): 6.8%
% Recovery SPR [1]: 0.008%

Molecule: CC(C)C[C@H](NC(=O)CNC(=O)[C@@H]1CCCN1C(=O)[C@H](Cc1c[nH]cn1)NC(=O)[C@H](Cc1c[nH]c2ccccc12)NC(=O)[C@H](CCC(=O)O)NC(=O)[C@H](C)N)C(=O)N[C@@H](CO)C(=O)N[C@@H](Cc1ccccc1)C(=O)NCC(=O)N[C@@H](CO)C(=O)N[C@@H](Cc1ccc(O)cc1)C(=O)N[C@@H](CC(C)C)C(=O)N[C@@H](Cc1c[nH]c2ccccc12)C(=O)N[C@@H](CO)C(=O)N[C@@H](CCCCN)C(=O)N[C@H](C(N)=O)[C@@H](C)O [compound 2] (H-AEWHPGLSFGSYLWSKT-NH2)
Kd (human urokinase receptor; [2]): 0.35 µM

Molecule: uPA12-32: The critical domain alone, residues 12-32 of uPA EGF-like domain (DCLNGGTCVSNKYFSNIHWCN; UniProt P00749 32-52, looked up, fragment)
affinity fold less than intact ATF (uPAR): about 100 fold

The next lines start with the values.

Kd (human urokinase receptor; [2]): 5 µM
Molecule: CSCC[C@H](NC(=O)[C@@H](NC(=O)[C@H](CC(N)=O)NC(=O)[C@H](CO)NC(=O)[C@H](CC(C)C)NC(=O)[C@H](Cc1ccccc1)NC(=O)[C@H](Cc1c[nH]c2ccccc12)NC(=O)[C@H](C)NC(=O)[C@H](CCC(=O)O)NC(=O)[C@H](C)N)[C@@H](C)O)C(=O)N[C@@H](CCCCN)C(=O)N[C@@H](C)C(=O)N[C@@H](CC(C)C)C(=O)N[C@@H](CO)C(=O)N[C@@H](C)C(=O)N[C@@H](CCCNC(=N)N)C(=O)N[C@@H](CC(C)C)C(N)=O [compound 13] (H-AEAWFLSNTMKALSARL-NH2)

Kd (human urokinase receptor; starred values: assay performed at 100 pM ATF, 0.3 μg/ml suPAR in 200 μL): 4 µM
Molecule: CC(C)C[C@H](NC(=O)[C@H](CCCNC(=N)N)NC(=O)[C@H](CC(C)C)NC(=O)[C@@H]1CCCN1C(=O)[C@H](Cc1ccccc1)NC(=O)[C@H](CCC(N)=O)NC(=O)[C@H](Cc1ccc(O)cc1)NC(=O)[C@H](CC(C)C)NC(=O)[C@H](CCC(N)=O)NC(=O)[C@H](Cc1c[nH]c2ccccc12)NC(=O)[C@H](CC(C)C)NC(=O)[C@@H](NC(=O)[C@@H]1CCCN1C(=O)[C@H](CCC(=O)O)NC(=O)[C@H](C)N)[C@@H](C)O)C(=O)N[C@@H](CO)C(=O)NCC(N)=O [compound 14] (H-AEPTLWQLYQFPLRLSG-NH2)
